The values that follow come from article PMC11432991.

The data set has as its system MexT-(His)6 (Pseudomonas poae PMA22). The data set can be described thus: EMSA. The following applies: 10 mM MgCl2, 5.4-134.5 ng MexT, 1 nM probe, EMSA: 20 mM Tris-HCl pH 8, 150 mM KCl, 10 mM MgCl2, 10% glycerol, 2 mM beta-mercaptoethanol, 50 ug/mL BSA, 9 uL, 20 min room temperature, 5% PAGE in 0.5x TBE.

Turning to Pa promoter probe, the binding signal (scale: fold of Pi affinity) stood at 0.33.

The substance Pi promoter probe had a binding signal (fold higher affinity than Pa probe) of 3.
